# According to the DeepSol protein solubility set:
# Test: soluble on expression in E. coli; label from the status in PepcDB or PDB records
row,Sequence,soluble on expression in E. coli
1,MNPKIEDSEFNWENEDIVMKLVDEKGKAHPVSKAELLESLESRKLGLETRVLDKYHENHVAFENVLVLDAPQDLETIVNLLLPWYMGKTLTLFEGPLNYPDSSRLAQIISKHNVDIVLGSDYNYSIPNPEYLKLFPVPSLKLVDLPNFESISNYLTISR,not soluble
2,MNPLVIKLGGVLLDSEEALERLFTALVTYREKHERPLVIMHGGGCLVDELMKRLALPVVKKNGLRVTPADQIDIITGALAGTANKTLLAWAVKHQINAVGLCLADGNTVTVTLLDAELGHVGKAQPGSAALVQTLLAAGYMPIISSIGITVEGQLMNVNADQAATALAATLGADLILLSDVSGILDGKGQRIAEMTAQKAEQLIAQGIITDGMVVKVNAALDAARSLGRPVDIASWRHSEQLPALFNGVPIGTRISV,not soluble
3,MNPRQAFFACLHRSPPALLEAALWIAAEHDPQVVPGLLLEEFKQLQQQVGSSLPTLPANELGQPLLRRLNDLGFQQDEHLPLRPQAALMDKVLERRRGQPLALALIALELAQRLQVPLAGVNFPGHFLLRVPGADHLLDPCGGRRLYPNDCRELLQRQYGAHIKLSAEHLASAEPLQMFQRLSRNLRQLHLSYDDHLGALINAERVLEIGNGSAADYLARASLYQRLECPNAERFDLEHALLLSDDPIQRLRLTERLGHLPPNTIVHLEHHHHHH,soluble
4,MNQGEIVYQDDDDYYDESEIYDNYEEGAEFIEVNGQLVPHNPAQQNRPGTSSMIQQHNRSMEVNQGLVKDEPIDTSSHRVYVPPPRPVQRKPGPSTPGSSQYTVRNLSNLSGSPSMYDRQPASLPRTVQPMGLEMGNSEQRKVYIDMKDHVSHIRLKTKKKVFAPGQRKPCNCTKSQCLKLYCDCFANGEFCRDCNCKDCHNNIEYDSQRSKAIRQSLERNPNAFKPKIGIARGGITDIERLHQKGCHCKKSGCLKNYCECYEAKVPCTDRCKCKGCQNTETYRMTRYKNSGGAVSNTNALMSLTNASSTATPDSGPGSVVTDEHGDDYEDMLLSHKPKVEMDPRRFPWYYMTDEVVEAATMCMVAQAEEALNYEKVQTEDEKLINMEKLVLREFGRCLEQMITNTTELTQDLDAAPTDDIPGPSTSTS,not soluble
5,MNQIIENAFVKVEVSPHGAELQSIFNKQFHLEYLWQGDPAVWPRKAPVLFPIVGKVKDNQYTISGKTYSLSQHGFARDNAFTLVSATDTTLVYRLTHSEDSFKNFPYEFELDISYSIEHSILKVAYKIHNSSGTSDLYYSIGAHPGFRCPLVEGETFEDYYLEFEKAEKLNRVLLDGGLRGDQTEPVPLTNNKLPLSVNLFGSKDAIVVSGLHSERISLKSNKSVHGLHFDYKNYPWFGIWSKPGPFVCLEPWMGVADDIHAAGDFIKKESIQFLQPKAEALFTYSIELFLEHHHHHH,not soluble
6,MNQKDTRKETLEFNKLQKRLRRNVGNAITDYNMIEEGDVVMACISGGKDSFAMLDILLNLQKAAPIKFEVVAVNLDQKQPGFPEHILPEYFETLNIPYYIVDKDTYSVVKEKVPEGKTTCGLCSRLRRGTLYSFAEKIGATKLALGHHMDDIVETMFLNMFHGSRLKAMPPKLRSDDGRNVVIRPLTYCREKDLIKYAEHKDFPIIPCNLCGSQENLQRQAIKAMLIDWDKKTPGRVEAIFKSIQNVSPSQLADRELFDFVNLPLDRDGSREEYEFSEAVVSSTNIDESLFIDVTNI,soluble
7,MNQQDIEQVVKAVLLKMKDSSQPASTVHEMGVFASLDDAVAAAKRAQQGLKSVAMRQLAIHAIREAGEKHARELAELAVSETGMGRVDDKFAKNVAQARGTPGVECLSPQVLTGDNGLTLIENAPWGVVASVTPSTNPAATVINNAISLIAAGNSVVFAPHPAAKKVSQRAITLLNQAVVAAGGPENLLVTVANPDIETAQRLFKYPGIGLLVVTGGEAVVDAARKHTNKRLIAAGAGNPPVVVDETADLPRAAQSIVKGASFDNNIICADEKVLIVVDSVADELMRLMEGQHAVKLTAAQAEQLQPVLLKNIDERGKGTVSRDWVGRDAGKIAAAIGLNVPDQTRLLFVETPANHPFAVTEMMMPVLPVVRVANVEEAIALAVQLEGGCHHTAAMHSRNIDNMNQMANAIDTSIFVKNGPCIAGLGLGGEGWTTMTITTPTGEGVTSARTFVRLRRCVLVDAFRIV,not soluble
8,MNREGAPGKSPEEMYIQQKVRVLLMLRKMGSNLTASEEEFLRTYAGVVNSQLSQLPPHSIDQGAEDVVMAFSRSETEDRRQ,soluble
9,MNRHPALSLDLDDGIDRKVLGQLRQRFLAVNAGRLQRARQALSSRQERVLRLLPLLFHINHPLLPGYLSASTPAGLSGFEADDEVLAEAQRLARSFVYKPRRQEPAQQPIHGLFLMGSLGSLAQEEQSDLDLWVCHAPELEPGARQELRRKCALIEDWARSQGSEVHCFLIDVARFGQDEREDRKEPGGDGNTQHFLLLDEFYRSAIWLGGRTPLWWLVPPAHERRYDEYCRTLLGKRFIRAEEVLDLGHLAHIPAREFIGAGLWQLSKAIDSPYKSLLKLLLTEAYASEHPRVRCVALRFKEQVFAGQLDLDELDPYVLVYRHLERYLREQQAPERLELVRRCLYLKVGRKLGGRQRQAQKGWQHLSMERLVAEWQWEPRRLALLDSRSQWKMRQVMEERRTVVNELTYSYRLLFQIARQQGADSGIDSRDLGLLGRRLYAAFERKAGKVENINPGIAPDLGEDVLTLVQLPADDGREQAQWAIFPGALGAHQWPDYAPLKRSLRLVELLAWCHRNGVIDSATRLSLHPGQSDLGDAELDNLLGSLRQFLPVPLATVDDADLLQPRRLKSVLLLVNVGVDPLRHHSQMNLHMATGRTDVLGYAGVRDNLVLTLDQLSLNSWNELTVRHYAGPQALPECLAEFLDAVREKPGSPPQPPELMVRCFCRNRAAAIAVRVEELFRETYGQLLGGQPSRYLLQIRQQYHLLEMSPEAVSHESLPDLPSLLQHLGRERDGYSALKLDRHALEGEDLGLILSMGRPDCIQVFYRRDFDSAEISLLDERNALWRQRQALRDERSLLAPLQRFLQSLLYRRNALSLAEQVPAALDIRYYELLSNDGRVHVEPREAPEALAGPALYELQALLERGERKRVQVTLYCDHQEFSELEYGAGLFKAVARHILAHRAESEPYPCYLTDLDLSRLFADEQPQTLHYLRYKSVLETALNQALLE,not soluble
10,MNRHSTTSGNLNTVFGYVDEETVSQGISASYVGSGKLVGNRLVRHTQTSLFSSANTW,not soluble
11,MNRILIVEDEKNLARFIELELQHENYETAVANDGRAGLELALNEEWDAILLDLMLPHLNGVEVCRRVRQVKQTPIIMITARDSVIDRVSGLDHGADDYIVKPFAIEELLARLRSLLRRVENAEQSAKQTTLQYRNLIVEKENRIVKRDEEIIDLTKREYELLLTLMENVNIVLTREVLLNKVWGYETEVETNVVDVYVRYLRNKIDHPDEESYIQTVRGTGYVMRT,not soluble
12,MNRKIERMIIELEKECKAQNVELLLCATNFETGQGSTAFCGSVIGLAILLQKLVGDLKEQLSISESCDCPECVAEKAEDAANEKSMDELLTAFLRGELQ,not soluble
13,MNRKTGTTTVGIKVKDGVILAADTQASLDHMVETLNIRKIIPITDRIAITTAGSVGDVQMIARILEAEARYYYFAWGRPMTTKAMANLLSNILNENKWFPYLVQIIIGGYVDEPTIANLDPYGGLIFDNYTATGSGTPFAIAILEEGYKENLGIEEAKELAIKAIKAAGSRDVYTGSKKVQVVTITKEGMQEEFIKL,soluble
14,MNRLKSDQKTKLRQFVQWTQVTEAVSLNFLAKANWNIEYAMTLYFDNPNLFAGSTPQPSVDRSNIERLFNQYVDPKDKVGEKRMGPHGINRLLTDLGYEATDRRVLVLAWKFTAQTQCEFSLDEWVKGMTALQADTVQNLRQRIDSINSGLESDKAKFHELYLFAFNYAKSAACRNLDLETAICCWDVLFGQRSTIMTQWIDFLWAQENAAASRLAQNVGASNAKQFKSVWISRDTWNLFWDFILLSKPDLSDYDDEGAWPVLIDQFVDYCRENLNYPKPGNASNDQQMETPSYY,not soluble
